For data set [1], the target named is T1, SHMT1 (cytosolic serine hydroxymethyltransferase) WT (Homo sapiens, UniProt P34896 1-483).
T1 sequence: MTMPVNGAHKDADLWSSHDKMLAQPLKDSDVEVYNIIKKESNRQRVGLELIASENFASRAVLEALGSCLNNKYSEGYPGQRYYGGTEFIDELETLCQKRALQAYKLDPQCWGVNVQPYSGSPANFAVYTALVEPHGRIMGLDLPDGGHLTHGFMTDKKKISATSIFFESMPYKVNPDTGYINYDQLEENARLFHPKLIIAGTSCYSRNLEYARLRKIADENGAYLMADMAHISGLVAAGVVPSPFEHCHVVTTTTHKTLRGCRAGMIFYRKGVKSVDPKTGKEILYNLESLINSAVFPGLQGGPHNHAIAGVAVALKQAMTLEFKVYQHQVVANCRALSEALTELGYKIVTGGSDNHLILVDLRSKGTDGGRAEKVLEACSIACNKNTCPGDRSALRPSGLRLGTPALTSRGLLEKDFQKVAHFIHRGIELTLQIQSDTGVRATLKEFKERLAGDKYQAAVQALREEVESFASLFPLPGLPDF
Nature of the data set: EMSA. For orientation: Mobility shift assays separate free from complexed probe on a gel.

The data set “cryo-EM structure” deals with the molecule itself. As to the kind of experiment: cryo-EM structure.

Take UGUGGCCUUUUGGGAAUUGUAGUUCGCCCACUCACCGCUUUUUUCUUUAU (structured_RNA) [UTR2 1-50 Rv (reverse complement)]: the binding result in data set [1] is reported as “binds”.

B1: human cytosolic serine hydroxymethyltransferase (SHMT1), wild type (enzyme)
chain: DADLWSSHDKMLAQPLKDSDVEVYNIIKKESNRQRVGLELIASENFASRAVLEALGSCLNNKYSEGYPGQRYYGGTEFIDELETLCQKRALQAYKLDPQCWGVNVQPYSGSPANFAVYTALVEPHGRIMGLDLPDGGHLTHGFMTDKKKISATSIFFESMPYKVNPDTGYINYDQLEENARLFHPKLIIAGTSCYSRNLEYARLRKIADENGAYLMADMAHISGLVAAGVVPSPFEHCHVVTTTTHKTLRGCRAGMIFYRKGVKSVDPKTGKEILYNLESLINSAVFPGLQGGPHNHAIAGVAVALKQAMTLEFKVYQHQVVANCRALSEALTELGYKIVTGGSDNHLILVDLRSKGTDGGRAEKVLEACSIACNKNTCPGDRSALRPSGLRLGTPALTSRGLLEKDFQKVAHFIHRGIELTLQIQSDTGVRATLKEFKERLAGDKYQAAVQALREEVESFASLFPLPGL
As for B1, the stoichiometry N – broadly, the number of molecules, sites or subunits per partner or assembly – in “cryo-EM structure” amounted to 4.

For the origin of these results see article doi:10.1101/2023.03.17.532973 (bioRxiv, 2023).
